This is an account of results in US12624112 (MABWELL SHANGHAI BIOSCIENCE, dated 2026).

Test [1] concerns the target T1, ST2 on KU812 cells (UniProt Q01638 19-556, limits assumed).
T1 sequence (looked up): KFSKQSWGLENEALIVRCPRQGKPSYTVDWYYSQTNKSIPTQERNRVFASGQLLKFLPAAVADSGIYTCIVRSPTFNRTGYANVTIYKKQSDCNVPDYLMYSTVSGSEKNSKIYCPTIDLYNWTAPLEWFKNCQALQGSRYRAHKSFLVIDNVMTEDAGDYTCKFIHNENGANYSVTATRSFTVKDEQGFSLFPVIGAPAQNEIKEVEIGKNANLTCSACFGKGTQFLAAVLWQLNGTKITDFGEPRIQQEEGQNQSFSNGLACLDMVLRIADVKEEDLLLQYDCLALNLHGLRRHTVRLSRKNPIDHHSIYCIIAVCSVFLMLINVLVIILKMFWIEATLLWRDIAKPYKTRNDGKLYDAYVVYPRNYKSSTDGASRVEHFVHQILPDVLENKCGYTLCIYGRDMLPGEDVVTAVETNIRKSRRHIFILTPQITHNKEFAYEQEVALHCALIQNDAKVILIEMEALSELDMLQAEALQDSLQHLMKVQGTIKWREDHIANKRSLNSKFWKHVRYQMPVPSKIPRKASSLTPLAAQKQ
In words: cell-based or functional assay.

Test [2] has as its target T2, Cyno ST2-fc (cyno; human, UniProt A0A2K5UDB8 19-331).
T2 construct: also called cyno ST2 fused with a human IgG1 Fc tag at the C-terminus
T2 sequence: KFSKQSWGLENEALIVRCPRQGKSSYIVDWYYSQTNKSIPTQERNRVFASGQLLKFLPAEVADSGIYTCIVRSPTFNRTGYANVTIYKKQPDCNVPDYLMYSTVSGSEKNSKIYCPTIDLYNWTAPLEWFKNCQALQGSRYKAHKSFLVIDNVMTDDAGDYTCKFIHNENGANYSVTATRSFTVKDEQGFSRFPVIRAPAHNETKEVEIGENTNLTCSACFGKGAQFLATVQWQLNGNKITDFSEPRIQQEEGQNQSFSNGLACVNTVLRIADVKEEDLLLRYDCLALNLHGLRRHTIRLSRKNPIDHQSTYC
In words: SPR Biacore X100, antibody on CM5, cyno ST2-fc analyte. How it is done:
The experiment on the interactions between the anti-human ST2 antibodies and cyno ST2-fc was performed using Biacore X100, and was carried out at 25° C. in HBS-EP (1×) buffer (pH 7.4). Each antibody was immobilized on the surface of CM5 chip using an amino coupling kit. Following the antibody immobilization, a solution of cyno ST2-fc (2-fold gradient dilution from a starting concentration of 8 nM, to obtain 6 concentrations in total; the starting concentration might be increased if the signal of some sample was too low) was injected. Association was monitored for 2 min and dissociation for 10 min, and the sensor surface was regenerated by injecting a solution of glycine at pH 1.5.
On the technique in general: In SPR one partner is held on a chip, and binding of the other changes the refractive index at the surface.

Test [3] deals with T3, Human ST2-his (human, UniProt Q01638 19-328).
T3 construct: Expressed in CHO-K1; also called human ST2 fused with a 6-histidine tag at the C-terminus
T3 sequence: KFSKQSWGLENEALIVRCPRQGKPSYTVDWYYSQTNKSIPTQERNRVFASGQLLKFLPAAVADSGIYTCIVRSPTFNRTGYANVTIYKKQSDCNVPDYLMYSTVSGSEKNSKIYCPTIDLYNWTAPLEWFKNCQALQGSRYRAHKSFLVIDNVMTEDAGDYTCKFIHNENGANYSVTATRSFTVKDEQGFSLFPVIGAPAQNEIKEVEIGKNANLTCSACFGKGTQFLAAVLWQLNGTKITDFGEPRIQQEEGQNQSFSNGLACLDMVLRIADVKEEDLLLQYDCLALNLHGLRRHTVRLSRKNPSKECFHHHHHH
In words: SPR Biacore X100, antibody on protein A, ST2-his analyte. The method, then:
On the basis of the results of the quantitative screenings of murine antibodies above together, 19 murine antibodies were selected for affinity determination and in vitro pharmacological study. The experiment on the interaction between the anti-human ST2 antibodies and human ST2-his was performed using Biacore X100, and was carried out at 25° C. in HBS-EP (1×) buffer (pH 7.4).
Each anti-human ST2 antibody was diluted to 10 nM and captured on the surface of a protein A chip (for a capture time of 60 s). […] Association was monitored for 4 min and dissociation for 10 min, and the sensor surface was regenerated by injecting a solution of glycine at pH 2.0. Data generated for kinetics and affinity assay were analyzed using BIAevaluation software.

The target in test [4] is T3, Human ST2-his. In words: ELISA, coated human ST2-his. The method, then: Human ST2-his was diluted with a coating buffer to 1 μg/mL, added into plates at 50 μL/well, and coated overnight at 4° C. Next day, the coated plates were taken, washed with PBST for 3 times, and then incubated using a blocking buffer at room temperature for 1 hr. Subsequently, the plates were washed with PBST for 3 times again. Starting at 100 ng/mL, each murine antibody was diluted 3-fold to obtain serial dilutions of 8 concentrations in total which were then added into the 96-well plates at 50 μL/well. The plates were incubated at room temperature for 1 hr, washed with PBST for 3 times; and then a goat anti-mouse secondary antibody (1:10000) was added at 50 μL/well into the 96-well plates which subsequently were incubated at room temperature for 1 hr. The 96-well plates were washed with PBST for 3 times, and TMVB was added at 50 μL/well to develop color in dark for 10 min. Afterwards, 2 M sulfuric acid was added to stop reaction; and GD values at 450 nm were read by a micro-plate reader.

For the next test, the target named is Human ST2-fc (human) (UniProt Q01638). Description: competition ELISA, coated ST2-fc, competitor IL33-his. Background: In an ELISA, binding on a coated surface is turned into a signal by an enzyme label.
Test [5] concerns the target T1, ST2 on KU812 cells. Description: cell-based or functional assay. The source holds these as a separate data set.
Test [6] concerns the target T2, Cyno ST2-fc. Description: ELISA, coated cyno ST2-fc. How it is done: Cyno ST2-fc was diluted with a coating buffer to 1 μg/mL, added into 96-well plates at 50 μL/well and coated overnight at 4° C. Next day, the coated plates were taken, washed with PB ST for 3 times, and then incubated using a blocking buffer at room temperature for 1 hr. Subsequently, the plates were washed with PBST for 3 times again. Starting at 1000 ng/mL, each murine antibody was diluted 3-fold to obtain serial dilutions of 8 concentrations in total which were then added into the 96-well plates at 50 μL/well. The plates were incubated at room temperature for 1 hr, washed with PB ST for 3 times; and then a goat anti-mouse secondary antibody (1:10000) was added at 50 μL/well into the 96-well plates which subsequently were incubated at room temperature for 1 hr. The 96-well plates were washed with PB ST for 3 times, and TMB was added at 50 μL/well to develop color in dark for 10 min. Afterwards, 2 M sulfuric acid was added to stop reaction; and GD values at 450 nm were read by a microplate reader. It can be seen that the murine antibodies can bind to cyno ST2, with a binding trendency consistent with the binding to human ST2.

Substitutions are numbered along the chain they refer to.

B1: Control antibody CNTO7160 (antibody, human IgG4 S228P, kappa, V domains shown)
VH: EVQLLESGGGLVQPGGSLRLSCAASGFTFSIYDMIWVRQAPGKGLEWVSSIRGEGGGTYYADSVKGRFTISRDNSKNTLYLQMNSLRAEDTAVYYCARDPWSTEGSFFVLDYWGQGTLVTVSS
VL: EIVLTQSPATLSLSPGERATLSCRASQSVDDDLAWYQQKPGQAPRLLIYDASNRATGIPARFSGSGSGTDFTLTISSLEPEDFAVYYCQQYITAPLTFGQGTKVEIKR
As a reminder, the Kd is the free concentration of one partner at which half of the binding sites on the other are occupied at equilibrium, for simple one-to-one binding. What is called koff is the first-order rate constant of dissociation. A lower koff goes with slow dissociation. For orientation: kon means a measure of how fast the partners come together. Turning to B1, in the test with ST2 on KU812 cells [1], the “Maximum inhibition rate (%), KU812 IL-5 production” value (“Maximum inhibition rate (%)” below) was determined as 89%. In the test with Cyno ST2-fc [2], the Kd came out at 0.136 nM, the koff was determined as 0.000221 s⁻¹ and the kon came out at 1.63e+06 M⁻¹ s⁻¹. Besides, in the test with Human ST2-his [3], binding was characterised by a dissociation constant (Kd) of 0.698 nM, the koff stood at 0.000539 s⁻¹ and the kon turned out to be 827000 M⁻¹ s⁻¹.

B2: 5886-156H+L (antibody, V domains shown)
VH: DVQLQQSGPGLVKPSQSLSLTCTVTGYSITSDYAWNWIRQFPGNKLEWMGYIDYSGSTTYNPSLKSRFSITRDTSKNQFFLQLNSVTTEDTATYYCASTVIDSMDYWGQGTSVTVSS
VL: DIVLTQSPASLAVSLGQRATISCRASKSVSTSGHSYMHWYQQKPGQPPKLLIYLASNLESGVPARFSGSGSGTDFTLNINPMEEEDAATYYCQHSREFPFTFGSGTKLEIK
notes: murine antibody
In general, EC50 refers to the concentration giving half of the maximal effect. Higher therefore signals weaker potency. As a reminder, the IC50 is the concentration needed to halve the response being measured. With B2, in the test with Human ST2-his [4], the EC50 came to 0.0161 µg/mL and the “Relative activity (%) compared with CNTO7160” value turned out to be 131%. Also, in the test with ST2 on KU812 cells [1], the “Maximum inhibition rate (%)” value amounted to 84.2% and the “Relative activity (%), KU812 IL-5 production” value stood at 304%. In the test with Cyno ST2-fc [2], this molecule yielded a dissociation constant Kd of 0.206 nM, a koff of 0.000747 s⁻¹ and a kon of 3.62e+06 M⁻¹ s⁻¹. Moreover, in the test with Human ST2-fc (human), the IC50 was 1.14 µg/mL and the Relative activity (%) compared with CNTO7160 is 76.6%. Besides, in the test with Human ST2-his [3], the affinity, expressed as Kd, was 0.461 nM; the koff is 0.00109 s⁻¹; the kon came out at 2.37e+06 M⁻¹ s⁻¹. Moreover, in the test with ST2 on KU812 cells [5], the “IC50, activation of KU812-NF-κB reporter gene by IL33” value (“IC50, activation” for short) was 8.04 ng/mL and the “Relative activity (%) compared with CNTO7160, KU812-NF-κB reporter” value (shortened to “Relative activity (%) … KU812-NF-κB reporter”) came to 127%. For the same molecule, in the test with Cyno ST2-fc [6], a half-maximal effect (EC50) was put at 0.0203 µg/mL and the “Relative activity (%)” value worked out at 66.4%.

B3: 5887-41H+L (antibody, V domains shown)
VH: B2 VH with N36D, D53R, S57D, T59Y, F68I, S98T, V100M, I101M, S103T
VL: B2 VL with A12T, H34N, N80H, M82V, F100L, S104A, I110L
notes: murine antibody
In the case of B3, in the test with Human ST2-his [4], it took 0.0266 µg/mL to reach a half-maximal effect (EC50) and the “Relative activity (%) compared with CNTO7160” value came to 97.9%. For the same molecule, in the test with ST2 on KU812 cells [1], the “Maximum inhibition rate (%)” value is 79.2% and the “Relative activity (%), KU812 IL-5 production” value is 128%. In the test with Cyno ST2-fc [2], this molecule gave a Kd of 0.0903 nM, a koff of 0.000721 s⁻¹ and a kon of 7.98e+06 M⁻¹ s⁻¹. Moreover, in the test with Human ST2-fc (human), the IC50 came out at 1.29 µg/mL and the Relative activity (%) compared with CNTO7160 amounted to 82.7%. In the test with Human ST2-his [3], this molecule had a Kd of 0.56 nM, a koff of 0.000613 s⁻¹ and an on-rate constant (kon) of 1.1e+06 M⁻¹ s⁻¹. Further, in the test with ST2 on KU812 cells [5], the “IC50, activation” value stood at 2.87 ng/mL and the “Relative activity (%) … KU812-NF-κB reporter” value came to 41.9%. Further, in the test with Cyno ST2-fc [6], the EC50 was determined as 0.0615 µg/mL and the “Relative activity (%)” value was 21.9%.

B4: 5887-537H3+L1 (antibody, V domains shown)
VH: QVTLKESGPGILQPSQTLSLTCSFSGFSLSTSGMGVGWIRQPSGKGLEWLAHIWWDDVKQYNPALKSRLTISKDTSSSQVFLKSASVDTADTATYYCARIGGDYDYFDFWGQGTTLTVSS
VL: DIVLTQSPASLAVSLGQRATISCRASESVEYSGTSLMQWYQQKPGQPPKLLIYVASNVESGVPARFSGSGSGTDFSLNIHPVEEDDIAMYFCQQSRKVPWTFGGGTKLEIK
notes: murine antibody; also called 5887-537H3H+L1
For the molecule B4, in the test with Human ST2-his [4], a half-maximal effect (EC50) was put at 0.0123 µg/mL and the “Relative activity (%) compared with CNTO7160” value came out at 72.4%. For the same molecule, in the test with ST2 on KU812 cells [1], the “Maximum inhibition rate (%)” value was 62.2% and the “Relative activity (%), KU812 IL-5 production” value was 767%. In the test with Cyno ST2-fc [2], this molecule registered a Kd of 0.0807 nM, a koff of 0.000511 s⁻¹ and a kon of 6.33e+06 M⁻¹ s⁻¹. Besides, in the test with Human ST2-fc (human), the IC50 is 0.99 µg/mL and the Relative activity (%) compared with CNTO7160 stood at 93.5%. In the test with Human ST2-his [3], binding was characterised by a dissociation constant (Kd) of 0.168 nM, the koff came out at 0.00084 s⁻¹ and the kon was determined as 5.01e+06 M⁻¹ s⁻¹. Moreover, in the test with ST2 on KU812 cells [5], the “IC50, activation” value is 101 ng/mL and the “Relative activity (%) … KU812-NF-κB reporter” value amounted to 40.2%. Further, in the test with Cyno ST2-fc [6], it took 0.0171 µg/mL to reach a half-maximal effect (EC50) and the “Relative activity (%)” value came to 78.5%.
